Measured values: patent publication US20040071656A1, “Modulation of heat-shock-protein-based immunotherapies” (priority 2001, published 2004)

Target: T1, endogenous CD40 (Mus musculus, UniProt P27512)
T1 construct: endogenous CD40 in extracts of LPS-stimulated ANA1-cells; endogenous in cells; host or cells: ANA1 murine macrophage cell line, LPS-stimulated
T1 sequence (P27512 20-289): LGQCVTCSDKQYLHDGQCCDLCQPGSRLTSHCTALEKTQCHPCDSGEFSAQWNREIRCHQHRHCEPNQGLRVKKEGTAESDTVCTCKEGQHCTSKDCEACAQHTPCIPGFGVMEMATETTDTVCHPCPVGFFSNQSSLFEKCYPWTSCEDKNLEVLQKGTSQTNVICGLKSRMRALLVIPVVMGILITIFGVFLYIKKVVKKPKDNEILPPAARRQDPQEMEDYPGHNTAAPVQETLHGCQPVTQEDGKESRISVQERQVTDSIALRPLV
Experiment: Binding assay with His6-tagged Hsp70 and Ni-NTA-agarose, ANA1 cell lysate
Set-up: species or system murine
Conditions: His-tagged Hsp70, with or without ADP
Protocol: Binding assay with His6-tagged Hsp70 and Ni-NTA-agarose. ANA1-cells were stimulated with LPS as described above and lysed in lysis buffer (150 mM Tris/HCl, ph 7,5, 1% CHAPS) for 45 min at 4° C. Cell lysate was centrifuged at 100,000 g for 15 min at 4° C. […] of the supernatant was incubated with 10 μg of His6-tagged Hsp70, preincubated with ADP and a 30-fold excess of peptide C, or mock treated, as described above for biotinylated proteins, for 30 min at 4° C. Thereafter the samples were added to 20 μl of 1% BSA-treated Ni-NTA-agarose (Quiagen) and incubated for 30 min at 4° C. Unbound protein was removed by washing the beads three times with 1 ml lysis buffer, and immobilized proteins eluted with 10 μl SDS-PAGE-sample buffer by incubation for 5 min at 95° C. Eluates were analyzed by immunoblotting using an anti-CD40 antibody (CSA-180, Stressgen).
Details for FIG. 3. […] Thereafter samples were affinity purified on glutathione-Sepharose as outlined in Experimental Procedures, subjected to SDS-PAGE and analyzed by immunoblotting with antibodies directed against Hsc70 and Hsp70 (upper lanes), and against Hsp90 (lower lanes). […] After affinity purification samples were analyzed by immunoblotting as described in A, using antibodies directed against the His6-tag. […] Protein bound to Hsp70 was analyzed by affinity purification on Ni-NTA-agarose and immunoblotting with antibodies directed against CD40.

Hsp70: Recombinant human heat shock protein 70, expressed and purified as His-tagged protein
interaction with endogenous CD40 in extracts of LPS-stimulated ANA1-cells: interacted, in an ADP-dependent manner
